Measurements reported in patent US20200247855A1, “THERAPY AND DIAGNOSTICS” (OXFORD UNIVERSITY INNOVATION LIMITED, priority 2017, published 2020).

B1: P1096_IXORI: novel CXC-binding tick CKBP, Ixodes ricinus (protein, listed as Ixodes ricinus)
chain: HTTVTGSVEGKPNNPNEDIEVSYCRMNCTVENGVSSACSGDCVCVHRDNEPNGICVEITYFGDFGDPSQDPSIDEAAPRESVSKRRSNGES
B2: P1134_IXORI: novel CXC-binding tick CKBP, Ixodes ricinus (protein, listed as Ixodes ricinus)
chain: NEEVFTVEYCGMNCTQKSDGTWTECSGKNKDCRCYHESDAREGLCLSTEYTDFSQFETPSNSDLEAATPRPRKTLYPVRNPHGPKTRGLGYDKRILRDRVKFLI
B3: P1101_IXORI: novel CXC-binding tick CKBP, Ixodes ricinus (protein, listed as Ixodes ricinus)
chain: HTTVAGSDEDIEVSYCGMNCTVESGKSSKCSPDCVCVHEGNERDGICISITYLGDLGNPLEDPSIDLATPLAPVFQSSK
B4: P1219_IXORI: tick CKBP, Ixodes ricinus (protein, listed as Ixodes ricinus)
chain: ASLAKETEDTTLPARALVDSPDSDNCSSPQLPYFDELTYMPLGFLAVNCTKTCPVGKNGTVVNGNKCIVTWSILDVSTITVLVGSCKNGYCISDGSSECRNITLAGEDSQEEEEEAEEDEEEDDGDEEEDEEEDEEENDDD
B5: P1224_IXORI: tick CKBP, Ixodes ricinus (protein, listed as Ixodes ricinus)
chain: SDLCKMEAESSPFKLPQSSLLDAPDEEGCKYQLLFVEAEGPLVVNCTKDCPNGKIRTVVEGELCIAMVKTSSSGEATGLVGSCKRGSCVKKDDPCRTFTLSEEGDDDEEDEEEEEDEEEDEEEDEEEEEEDEEEED
B6: P458_IXORI: novel CXC-binding tick CKBP, Ixodes ricinus (protein, listed as Ixodes ricinus)
chain: GSKQPGAAGSSSDSVEAVFCPTNCTKGTNGAWSGCSDDCICVHVGENTEGSCMKFSGDYDYPTPEA
B7: P1100_IXORI: novel CXC-binding tick CKBP, Ixodes ricinus (protein, listed as Ixodes ricinus)
chain: GSKGSSASQSSDNSVVAKFCDTNCTINEGGKWTECKGGCFCVHVGNETVGRCMKLDGDYDYPSPKPEE
B8: P1074_IXORI: novel CXC-binding tick CKBP, Ixodes ricinus (protein, listed as Ixodes ricinus)
chain: GSKESSAHQSSDDSIKAEFCDAKCTMKTDGKWTQCHGGCFCVHVGNETEGRCMRLDGDYDYPSTQPEE
B9: P1126_AMBCA: novel CXC-binding tick CKBP, Amblyomma cajennense (protein)
chain: KPQILQRTDKSTDSEWDPQTCPETCIPSKNITCSDGCVCVKLGEEEEGTCFNMTGVDWLGSPSDD
modifications: Amblyomma cajennense
B10: P1080_IXORI: novel CXC-binding tick CKBP, Ixodes ricinus (protein, listed as Ixodes ricinus)
chain: SAGSKGSSAPQSSGDSVVAEFCDTNCTMKKDGKWTECNGDCFCVHVGNETVGRCMRLDGDYDYTSSKTTRRNKKTRNGLCRLDRNRTTVDYPERNTREP
B11: P1095_IXORI: novel CXC-binding tick CKBP, Ixodes ricinus (protein, listed as Ixodes ricinus)
chain: HSPVAGSEVQKLTSDPNDDIDVSYCGMNCTVVNGKSDECSENCKCLHEGDDPKGICVAITYFGDWGDPNDDPKINEATPQTQIFEKKRK
B12: P1104_IXORI: novel CXC-binding tick CKBP, Ixodes ricinus (protein, listed as Ixodes ricinus)
chain: ESKEASASQGPGKSFKVEFCETNCTENNGVWSGCTGDCICVSVGDSKEGRCMDLGDKVIDTPVAQG
B13: P1132_IXORI: novel CXC-binding tick CKBP, Ixodes ricinus (protein, listed as Ixodes ricinus)
chain: LSDEDELFSVEYCGTNCTKQDTGSWTTCSGNCTCYHEDGKKVGLCLSTEYTDFTKFPKPTSEEIANARPLPKREKTLN
B14: P1229_IXORI: novel CXC-binding tick CKBP, Ixodes ricinus (protein, listed as Ixodes ricinus)
chain: DDEFFTVDYCGMNCTLQQDGSWTPCTQKNAECKCYHESGSSVGLCLSTAYTDFNQFGDPNNSDLDAATPRHPDASSR
B15: P1162_IXORI: novel CXC-binding tick CKBP, Ixodes ricinus (protein, listed as Ixodes ricinus)
chain: LNDEELFTVDYCGTNCTQQPNGSWTTCPGNCSCYHEDGKTDGFCLSTEYTDFTQFPNLTSEEMDAATPRPE
B16: P1166_IXORI: novel CXC-binding tick CKBP, Ixodes ricinus (protein, listed as Ixodes ricinus)
chain: GPETKEDKKSDVYELFTVEYCGTNCTLLTNGRWTACTGKKGTCRCYHESGEKVGLCLSTEYTDFSEYPNPKSSEIDAAAPLPRETH
B17: P1077_IXORI: novel CXC-binding tick CKBP, Ixodes ricinus (protein, listed as Ixodes ricinus)
chain: GSKQLIGPQSSTNSIKAEFCDTNCTAGTNGIWNGCSGDCFCTHVGNSTEGRCMKITGFDEYPTSEAEE

Target: T1, CXCL10_HUMAN (Homo sapiens, UniProt P02778)
T1 sequence (P02778 22-98): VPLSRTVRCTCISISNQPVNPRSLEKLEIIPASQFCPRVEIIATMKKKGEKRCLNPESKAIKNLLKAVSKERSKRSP
Test: Yeast surface display (YSD) FACS binding
Conditions: FACS re-test; mean percent shift where several clones
Method: (§1) Table 1. Tick CKBPs described in PCT/GB2017/050563 and [17]. Tick peptide sequences isolated in yeast surface display fluorescent-activated cell sorting (FACS) screens using a labelled chemokine. Identity with Evasin-1, 4 or 3 was calculated using BLAST. Abbreviations: IXORI—Ixodes ricinus, RHISA—Rhipicephalus sanguineus, AMBMA—Amblyomma maculatum, AMBPA—Amblyomma parvum, AMBTR—Amblyomma triste, AMBAM—Amblyomma americanum, AMBCA—Amblyomma cajennense, RHIPU—Rhipicephalus pulchellus. Table 2A-C. Binding characteristics of tick CKBPs previously disclosed (PCT/GB2017/050563 and [17]). All members of the human chemokine family[164] are listed in column 1. Binding to human chemokines was determined for 14 tick CKBPs using biolayer interferometry (BLI) with calculated Kd shown as Molar (Moles/Litre). Binding data for 17 other novel tick CKBPs was assayed using yeast surface display[17,166],with positive binding results shown as “YES”. For biolayer interferometry, His-tagged purified tick CKBP was bound to a Ni-NINTA sensor on an OctetRed® 384 system, and then binding to each chemokine listed (with the exception of CCL25, CCL26, CXCL16, CXCL17, CXCL4L1, XCL2) was assayed in a cross-binding screen at a chemokine concentration of 300 nM as described. For those chemokines showing binding to a tick CKBP in the cross-binding screen, binding assays were repeated using different doses of chemokine. Association, equilibrium and dissociation data were analysed using Octet software to create corresponding fitted curves, and used to calculate Kd. For yeast surface display, (YSD) background fluorescence was controlled for by using either an empty vector or by omitting the chemokine (i.e. using streptavidin-Alexa647 alone). An arbitrary threshold of >3 fold over background mean fluorescence intensity was chosen to describe confirmed re-tests. Where binding was detected data are indicated as “YES”. […] For yeast surface display data, empty cells represent chemokines that were not tested. Binding data published in relation to previously described tick CKBPs (Evasins-1, 4 and 3) is also shown for comparison in each of FIGS. 2A-C, with the relevant data obtained from publications: [20-22,32]. Table 3: Neutralisation of human chemokines by tick CKBPs previously disclosed (PCT/GB2017/050563 and [17]). Neutralising activity was determined using a quantitative THP1 cell migration assay in a 96-well Boyden chamber with chemokine in the bottom chamber as described. Cells migrating through to the bottom chamber at 4 hours were counted using flow cytometry in a 96 well plate format. IC50 for neutralisation was determined at the chemokine EC80 dose as determined using a range of tick CKBP concentrations. Data was analysed using GraphPad Prism to determine IC50, which is shown as Molar (Moles/Litre). Empty cells represent experiments not done. Table 4—Other previously described tick CKBPs. Tick CKBPs that were also described in PCT/GB2017/050563 and Singh et al. are indicated in “Notes”. Table 5.—Novel tick CKBPs of the invention. Table 6. […] The peptide sequence prefix indicates the identity, and suffix indicate the tick species as follows: AMBCA, Amblyomma cajennense and IXORI, Ixodes ricinus. […] Certain tick peptides e.g. P1074_IXORI were recovered from screens performed with more than one chemokine. Individual yeast clones recovered from the library were re-tested using a FACS (fluorescence activated cell sorting), experiment. The binding of the peptide to the chemokine was assayed by measuring the percent (%), of yeast cells expressing the given peptide that exceeded a background threshold set by measuring the fluorescence of the yeast library pool treated with streptavidin-[…] alone. When more than one independent yeast clone was isolated for a given peptide-chemokine combination, the mean percent shift was calculated and reported in column 3. […]

Molecule | Chemokines bound in yeast surface display and % cells over threshold fluorescence: CXCL10_HUMAN
B1 | CXCL10_HUMAN 50%
B2 | CXCL10_HUMAN 66%
B3 | CXCL10_HUMAN 75%

Same assay, conditions: yeast surface display

Molecule | Binding to CXCL10_HUMAN, YSD
B4 | YES (An arbitrary threshold of >3 fold over background mean fluorescence intensity was chosen to describe confirmed re-tests. Where binding was detected data are indicated as “YES”)
B5 | YES (An arbitrary threshold of >3 fold over background mean fluorescence intensity was chosen to describe confirmed re-tests. Where binding was detected data are indicated as “YES”)

Target: T2, CXCL9_HUMAN (Homo sapiens, UniProt Q07325)
T2 sequence (Q07325 23-125): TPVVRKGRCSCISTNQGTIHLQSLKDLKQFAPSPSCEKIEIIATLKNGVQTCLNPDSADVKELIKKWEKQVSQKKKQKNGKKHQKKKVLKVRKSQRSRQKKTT
Test: Yeast surface display (YSD) FACS binding
Conditions: FACS re-test; mean percent shift where several clones
Method: as §1

Molecule | Chemokines bound in yeast surface display and % cells over threshold fluorescence: CXCL9_HUMAN
B6 | CXCL9_HUMAN 37%
B7 | CXCL9_HUMAN 55%
B8 | CXCL9_HUMAN 35%
B9 | CXCL9_HUMAN 56%
B10 | CXCL9_HUMAN 49%

Target: CXCL12_HUMAN (Homo sapiens, UniProt P48061)
Test: Yeast surface display (YSD) FACS binding
Conditions: FACS re-test; mean percent shift where several clones
Method: as §1

Sequence of CXCL12_HUMAN (P48061 22-93): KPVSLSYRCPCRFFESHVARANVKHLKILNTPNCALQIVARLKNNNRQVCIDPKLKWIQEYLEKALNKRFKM

Molecule | Chemokines bound in yeast surface display and % cells over threshold fluorescence: CXCL12_HUMAN
B11 | CXCL12_HUMAN 47%
B10 | CXCL12_HUMAN 53%;

Target: T3, CXCL1_HUMAN (Homo sapiens, UniProt P09341)
T3 sequence (P09341 35-107): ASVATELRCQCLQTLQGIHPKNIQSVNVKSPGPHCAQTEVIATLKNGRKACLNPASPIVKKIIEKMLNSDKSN
Test: Yeast surface display (YSD) FACS binding
Set-up: label (chemical)
Conditions: FACS re-test; mean percent shift where several clones
Method: as §1

Molecule | Chemokines bound in yeast surface display and % cells over threshold fluorescence: CXCL1_HUMAN
B12 | CXCL1_HUMAN 65%
B13 | CXCL1_HUMAN 68%
B14 | CXCL1_HUMAN 66%
B15 | CXCL1_HUMAN 72%
B16 | CXCL1_HUMAN 63%
B17 | CXCL1_HUMAN 50%
